The assay has as its target T1, Rev1 C-terminal domain (876–985) of the Rad5–Rev1 fusion protein (S. cerevisiae, UniProt P12689 876-985).
T1 sequence (looked up): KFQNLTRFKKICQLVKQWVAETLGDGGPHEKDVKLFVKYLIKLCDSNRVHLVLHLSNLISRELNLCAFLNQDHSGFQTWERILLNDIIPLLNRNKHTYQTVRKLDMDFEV
The experiment in a line: crystal structure.

On to EQEERKRFFNDDLDTS (peptide, UniProt P32849 5-20, looked up) [Rad5 peptide (5–20) of the Rad5–Rev1 fusion protein], for which the binding result is recorded as “binds”.
